From paper PMC3057501 (Molecular cell, 2011)

Target: the molecule itself
Test: SEC-MALS

B1: human PAPD1 (residues 44-538), wild type (enzyme, UniProt Q9NVV4 44-538, looked up)
chain: EQPSGSVETGFEDKIPKRRFSEMQNERREQAQRTVLIHCPEKISENKFLKYLSQFGPINNHFFYESFGLYAVVEFCQKESIGSLQNGTHTPSTAMETAIPFRSRFFNLKLKNQTSERSRVRSSNQLPRSNKQLFELLCYAESIDDQLNTLLKEFQLTEENTKLRYLTCSLIEDMAAAYFPDCIVRPFGSSVNTFGKLGCDLDMFLDLDETRNLSAHKISGNFLMEFQVKNVPSERIATQKILSVLGECLDHFGPGCVGVQKILNARCPLVRFSHQASGFQCDLTTNNRIALTSSELLYIYGALDSRVRALVFSVRCWARAHSLTSSIPGAWITNFSLTMMVIFFLQRRSPPILPTLDSLKTLADAEDKCVIEGNNCTFVRDLSRIKPSQNTETLELLLKEFFEYFGNFAFDKNSINIRQGREQNKPDSSPLYIQNPFETSLNISKNVSQSQLQKFVDLARESAWILQQEDTDRPSISSNRPWGLVSLLLPSAPNR
stoichiometry N: 2
